According to US20100261620A1 (published 2010):

Target: IL-13 (Homo sapiens (Human), UniProt P35225 35-146, limits assumed)
Assay: Biacore

Chain of IL-13 (P35225 35-146 limits assumed): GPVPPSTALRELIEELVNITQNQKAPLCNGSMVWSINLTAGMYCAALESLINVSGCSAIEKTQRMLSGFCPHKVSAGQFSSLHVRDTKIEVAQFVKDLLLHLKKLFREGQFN

Binder | Kd [nM] | koff [s⁻¹] | kon [M⁻¹ s⁻¹]
M453 (antibody, V domains shown, anti-IL-13, human IgG1) VH: QVTLKESGPVLVKPTETLTLTCTVSGFSLSTYGMGVGWIRQPPGKALEWLAHIWWDDVKRYNPALKSRLTISKDTSKSQVVLTMTNMDPVDTATYYCARMGSDYDVWFDYWGQGTLVTVSS VL: EIVLTQSPATLSLSPGERATLSCRASKSISKYLAWYQQKPGQAPRLLIYSGSTLQSGIPARFSGSGSGTDFTLTISSLEPEDFAVYYCQQHDWGPYTFGQGTKLEIK | 0.044 | 4.7e-05 | 1.06e+06
M449 (antibody, V domains shown, anti-IL-13, human IgG1) VH: QVTLKESGPVLVKPTETLTLTCTVSGFSLSTYGMGVGWIRQPPGKALEWLAHIWWDDVKRYNPALKSRLTISKDTSKSQVVLTMTNMDPVDTATYYCARMGSDYDVWFDYWGQGTLVTVSS VL: EIVLTQSPATLSLSPGERATLSCRASKSISKYLAWYQQKPGQAPRLLIYSGSTLQSGIPARFSGSGSGTDFTLTISSLEPEDFAVYYCQQHESGPYTFGQGTKLEIK | 0.089 | 9e-05 | 1.02e+06
M461 (antibody, V domains shown, anti-IL-13, human IgG1) VH: QVTLKESGPVLVKPTETLTLTCTVSGFSLSTYGMGVGWIRQPPGKALEWLAHIWWDDVKRYNPALKSRLTISKDTSKSQVVLTMTNMDPVDTATYYCARMGSDYDVWFDYWGQGTLVTVSS VL: EIVLTQSPATLSLSPGERATLSCRASKSISKYLAWYQQKPGQAPRLLIYSGSTLQSGIPARFSGSGSGTDFTLTISSLEPEDFAVYYCQQHSIGPYTFGQGTKLEIK | 0.193 | 0.000257 | 1.33e+06
M462 (antibody, V domains shown, anti-IL-13, human IgG1) VH: QVTLKESGPVLVKPTETLTLTCTVSGFSLSTYGMGVGWIRQPPGKALEWLAHIWWDDVKRYNPALKSRLTISKDTSKSQVVLTMTNMDPVDTATYYCARMGSDYDVWFDYWGQGTLVTVSS VL: EIVLTQSPATLSLSPGERATLSCRASKSISKYLAWYQQKPGQAPRLLIYSGSTLQSGIPARFSGSGSGTDFTLTISSLEPEDFAVYYCQQHNFGPYTFGQGTKLEIK | 0.366 | 0.000417 | 1.14e+06
M444 (antibody, V domains shown, anti-IL-13, human IgG1) VH: QVTLKESGPVLVKPTETLTLTCTVSGFSLSTYGMGVGWIRQPPGKALEWLAHIWWDDVKRYNPALKSRLTISKDTSKSQVVLTMTNMDPVDTATYYCARMGSDYDVWFDYWGQGTLVTVSS VL: EIVLTQSPATLSLSPGERATLSCRASKSISKYLAWYQQKPGQAPRLLIYSGSTLQSGIPARFSGSGSGTDFTLTISSLEPEDFAVYYCQQHVWGPYTFGQGTKLEIK | 0.184 | 0.00022 | 1.2e+06
M448 (antibody, V domains shown, anti-IL-13, human IgG1) VH: QVTLKESGPVLVKPTETLTLTCTVSGFSLSTYGMGVGWIRQPPGKALEWLAHIWWDDVKRYNPALKSRLTISKDTSKSQVVLTMTNMDPVDTATYYCARMGSDYDVWFDYWGQGTLVTVSS VL: EIVLTQSPATLSLSPGERATLSCRASKSISKYLAWYQQKPGQAPRLLIYSGSTLQSGIPARFSGSGSGTDFTLTISSLEPEDFAVYYCQQHSHGPYTFGQGTKLEIK | 0.092 | 0.000127 | 1.39e+06
M447 (antibody, V domains shown, anti-IL-13, human IgG1) VH: QVTLKESGPVLVKPTETLTLTCTVSGFSLSTYGMGVGWIRQPPGKALEWLAHIWWDDVKRYNPALKSRLTISKDTSKSQVVLTMTNMDPVDTATYYCARMGSDYDVWFDYWGQGTLVTVSS VL: EIVLTQSPATLSLSPGERATLSCRASKSISKYLAWYQQKPGQAPRLLIYSGSTLQSGIPARFSGSGSGTDFTLTISSLEPEDFAVYYCQQQDIGPYTFGQGTKLEIK | 0.055 | 5.4e-05 | 980000
M457 (antibody, V domains shown, anti-IL-13, human IgG1) VH: QVTLKESGPVLVKPTETLTLTCTVSGFSLSTYGMGVGWIRQPPGKALEWLAHIWWDDVKRYNPALKSRLTISKDTSKSQVVLTMTNMDPVDTATYYCARMGSDYDVWFDYWGQGTLVTVSS VL: EIVLTQSPATLSLSPGERATLSCRASKSISKYLAWYQQKPGQAPRLLIYSGSTLQSGIPARFSGSGSGTDFTLTISSLEPEDFAVYYCQQHDYAPYTFGQGTKLEIK | 0.193 | 0.000214 | 1.11e+06
M454 (antibody, V domains shown, anti-IL-13, human IgG1) VH: QVTLKESGPVLVKPTETLTLTCTVSGFSLSTYGMGVGWIRQPPGKALEWLAHIWWDDVKRYNPALKSRLTISKDTSKSQVVLTMTNMDPVDTATYYCARMGSDYDVWFDYWGQGTLVTVSS VL: EIVLTQSPATLSLSPGERATLSCRASKSISKYLAWYQQKPGQAPRLLIYSGSTLQSGIPARFSGSGSGTDFTLTISSLEPEDFAVYYCQQQDYGPYTFGQGTKLEIK | 0.065 | 7.4e-05 | 1.13e+06
H2L6 HFS variant (antibody, V domains shown, IgG1; also called IL13-62) VH: QVTLKESGPVLVKPTETLTLTCTVSGFSLSTYGMGVGWIRQPPGKALEWLAHIWWDDVKRYNPALKSRLTISKDTSKSQVVLTMTNMDPVDTATYYCARMGSDYDVWFDYWGQGTLVTVSS VL: EIVLTQSPATLSLSPGERATLSCRASKSISKYLAWYQQKPGQAPRLLIYSGSTLQSGIPARFSGSGSGTDFTLTISSLEPEDFAVYYCQQHNEYPYTFGQGTKLEIK | 0.754 | 0.000944 | 1.25e+06
M450 (antibody, V domains shown, anti-IL-13, human IgG1) VH: QVTLKESGPVLVKPTETLTLTCTVSGFSLSTYGMGVGWIRQPPGKALEWLAHIWWDDVKRYNPALKSRLTISKDTSKSQVVLTMTNMDPVDTATYYCARMGSDYDVWFDYWGQGTLVTVSS VL: EIVLTQSPATLSLSPGERATLSCRASKSISKYLAWYQQKPGQAPRLLIYSGSTLQSGIPARFSGSGSGTDFTLTISSLEPEDFAVYYCQQHDPGPYTFGQGTKLEIK | 0.063 | 0.000107 | 1.71e+06
M455 (antibody, V domains shown, anti-IL-13, human IgG1) VH: QVTLKESGPVLVKPTETLTLTCTVSGFSLSTYGMGVGWIRQPPGKALEWLAHIWWDDVKRYNPALKSRLTISKDTSKSQVVLTMTNMDPVDTATYYCARMGSDYDVWFDYWGQGTLVTVSS VL: EIVLTQSPATLSLSPGERATLSCRASKSISKYLAWYQQKPGQAPRLLIYSGSTLQSGIPARFSGSGSGTDFTLTISSLEPEDFAVYYCQQHNEAPYTFGQGTKLEIK | 0.186 | 0.000303 | 1.63e+06
M456 (antibody, V domains shown, anti-IL-13, human IgG1) VH: QVTLKESGPVLVKPTETLTLTCTVSGFSLSTYGMGVGWIRQPPGKALEWLAHIWWDDVKRYNPALKSRLTISKDTSKSQVVLTMTNMDPVDTATYYCARMGSDYDVWFDYWGQGTLVTVSS VL: EIVLTQSPATLSLSPGERATLSCRASKSISKYLAWYQQKPGQAPRLLIYSGSTLQSGIPARFSGSGSGTDFTLTISSLEPEDFAVYYCQQHSYGPYTFGQGTKLEIK | 0.148 | 0.000182 | 1.24e+06
M445 (antibody, V domains shown, anti-IL-13, human IgG1) VH: QVTLKESGPVLVKPTETLTLTCTVSGFSLSTYGMGVGWIRQPPGKALEWLAHIWWDDVKRYNPALKSRLTISKDTSKSQVVLTMTNMDPVDTATYYCARMGSDYDVWFDYWGQGTLVTVSS VL: EIVLTQSPATLSLSPGERATLSCRASKSISKYLAWYQQKPGQAPRLLIYSGSTLQSGIPARFSGSGSGTDFTLTISSLEPEDFAVYYCQQHLLGPYTFGQGTKLEIK | 0.262 | 0.000291 | 1.11e+06
M446 (antibody, V domains shown, anti-IL-13, human IgG1) VH: QVTLKESGPVLVKPTETLTLTCTVSGFSLSTYGMGVGWIRQPPGKALEWLAHIWWDDVKRYNPALKSRLTISKDTSKSQVVLTMTNMDPVDTATYYCARMGSDYDVWFDYWGQGTLVTVSS VL: EIVLTQSPATLSLSPGERATLSCRASKSISKYLAWYQQKPGQAPRLLIYSGSTLQSGIPARFSGSGSGTDFTLTISSLEPEDFAVYYCQQHVGGPYTFGQGTKLEIK | 0.345 | 0.000465 | 1.35e+06
M459 (antibody, V domains shown, anti-IL-13, human IgG1) VH: QVTLKESGPVLVKPTETLTLTCTVSGFSLSTYGMGVGWIRQPPGKALEWLAHIWWDDVKRYNPALKSRLTISKDTSKSQVVLTMTNMDPVDTATYYCARMGSDYDVWFDYWGQGTLVTVSS VL: EIVLTQSPATLSLSPGERATLSCRASKSISKYLAWYQQKPGQAPRLLIYSGSTLQSGIPARFSGSGSGTDFTLTISSLEPEDFAVYYCQQPLEAPYTFGQGTKLEIK | 0.356 | 0.000449 | 1.26e+06
M443 (antibody, V domains shown, anti-IL-13, human IgG1) VH: QVTLKESGPVLVKPTETLTLTCTVSGFSLSTYGMGVGWIRQPPGKALEWLAHIWWDDVKRYNPALKSRLTISKDTSKSQVVLTMTNMDPVDTATYYCARMGSDYDVWFDYWGQGTLVTVSS VL: EIVLTQSPATLSLSPGERATLSCRASKSISKYLAWYQQKPGQAPRLLIYSGSTLQSGIPARFSGSGSGTDFTLTISSLEPEDFAVYYCQQHSWGPYTFGQGTKLEIK | 0.088 | 7.8e-05 | 880000
M451 (antibody, V domains shown, anti-IL-13, human IgG1) VH: QVTLKESGPVLVKPTETLTLTCTVSGFSLSTYGMGVGWIRQPPGKALEWLAHIWWDDVKRYNPALKSRLTISKDTSKSQVVLTMTNMDPVDTATYYCARMGSDYDVWFDYWGQGTLVTVSS VL: EIVLTQSPATLSLSPGERATLSCRASKSISKYLAWYQQKPGQAPRLLIYSGSTLQSGIPARFSGSGSGTDFTLTISSLEPEDFAVYYCQQPLDVPYTFGQGTKLEIK | 0.177 | 0.000333 | 1.88e+06
M452 (antibody, V domains shown, anti-IL-13, human IgG1) VH: QVTLKESGPVLVKPTETLTLTCTVSGFSLSTYGMGVGWIRQPPGKALEWLAHIWWDDVKRYNPALKSRLTISKDTSKSQVVLTMTNMDPVDTATYYCARMGSDYDVWFDYWGQGTLVTVSS VL: EIVLTQSPATLSLSPGERATLSCRASKSISKYLAWYQQKPGQAPRLLIYSGSTLQSGIPARFSGSGSGTDFTLTISSLEPEDFAVYYCQQHLNGPYTFGQGTKLEIK | 0.233 | 0.00027 | 1.16e+06
M463 (antibody, V domains shown, anti-IL-13, human IgG1) VH: QVTLKESGPVLVKPTETLTLTCTVSGFSLSTYGMGVGWIRQPPGKALEWLAHIWWDDVKRYNPALKSRLTISKDTSKSQVVLTMTNMDPVDTATYYCARMGSDYDVWFDYWGQGTLVTVSS VL: EIVLTQSPATLSLSPGERATLSCRASKSISKYLAWYQQKPGQAPRLLIYSGSTLQSGIPARFSGSGSGTDFTLTISSLEPEDFAVYYCQQQDLGPYTFGQGTKLEIK | 0.037 | 6.3e-05 | 1.7e+06
